# In PMC11255602 (Protein Science : A Publication of the Protein Society, 2024):
# Numbering of substitutions follows the chain as printed. In names and notes the source's numbering stands.
# B1: tetramer interface mutant (TIM) PRMT1 Y262A/Y304A/L341A (enzyme, human (rat sequence humanized by H161Y), UniProt Q99873-3 1-353, looked up)
# chain: MAAAEAANCIMEVSCGQAESSEKPNAEDMTSKDYYFDSYAHFGIHEEMLKDEVRTLTYRNSMFHNRHLFKDKVVLDVGSGTGILCMFAAKAGARKVIGIECSSISDYAVKIVKANKLDHVVTIIKGKVEEVELPVEKVDIIISEWMGYCLFYESMLNTVLYARDKWLAPDGLIFPDRATLYVTAIEDRQYKDYKIHWWENVYGFDMSCIKDVAIKEPLVDVVDPKQLVTNACLIKEVDIYTVKVEDLTFTSPFCLQVKRNDAVHALVAYFNIEFTRCHKRTGFSTSPESPYTHWKQTVFYMEDALTVKTGEEIFGTIGMRPNAKNNRDLDFTIDLDFKGQACELSCSTDYRMR
# B2: tetramer interface mutant 2 (TIM2) PRMT1 H64A/R66A/H278A (enzyme, human (rat sequence humanized by H161Y), UniProt Q99873-3 1-353, looked up)
# chain: B1 chain with H64A, R66A, A262Y, H278A, A304Y, A341L
# B3: H293A/E153A (HE) PRMT1 (enzyme, human (rat sequence humanized by H161Y), UniProt Q99873-3 1-353, looked up)
# chain: B1 chain with E153A, A262Y, H293A, A304Y, A341L
# Molecular target: the molecule itself
# Assay: native gel or EMSA
row,Protein,stoichiometry N
1,B1,2
2,B2,2
3,B3,4
